# Test results published in article PMC2863221 (The Journal of Biological Chemistry, 2010).
# B1: HA-tagged rat syndecan-4 AAA mutant (serines 44, 65 and 67 mutated to alanine; no glycosaminoglycan chains) (receptor, UniProt P34901 24-202, looked up)
# chain: ESIRETEVIDPQDLLEGRYFAGALPDDEDAGGLEQDSDFELAGAGDLDDTEEPRTFPEVISPLVPLDNHIPENAQPGIRVPSEPKELEENEVIPKRVPSDVGDDDVSNKVSMSSTSQGSNIFERTEVLAALIVGGVVGILFAVFLILLLVYRMKKKDEGSYDLGKKPIYKKAPTNEFYA
# Biological target: the molecule itself
# Test: SDS-PAGE and Western blot
protein,measurement,value
B1,stoichiometry N,2
